Measurements taken from paper PMC3105379.
Where two headings read alike, the source gives them in different places.

Tests used:
Assay in all cases: other fluorescence titration
[1] = molecular target: BIQG^6A, variant of BIQ with replacement A for the G at position 6
[2] = molecular target: BIQ, fluorescent reporter containing an IQ domain sequence derived from neuromodulin (UniProt P17677)
[3] = molecular target: BIQG^6R, variant of BIQ with replacement R for the G at position 6
[4] = molecular target: BIQG^6A, variant of BIQ with replacement A for the G at position 6; remark: listed apart in the source
[5] = molecular target: BIQ, fluorescent reporter containing an IQ domain sequence derived from neuromodulin (UniProt P17677); remark: listed apart in the source
[6] = molecular target: BIQG^6M, variant of BIQ with replacement M for the G at position 6

Substance: calmodulin (native CaM) (from UniProt P0DP23 1-149) (natural protein)
- Kd [1]: 5.4 µM
- Kd [2]: 2.4 µM
- Kd [3]: 0.4 µM
- Kd [4]: 0.9 µM
- Kd [5]: 2.9 µM
- Kd [6]: 0.4 µM
